# Experiment: yeast display, Sf9 membrane polyspecificity reagent, FACS + sequencing; frameworks hold sequencing errors
# Procedure, shortened: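 Synthetic nanobody libraries on Saccharomyces cerevisiae BJ5465 were galactose-induced for 36–48 hours, stained 1 hour at 4 °C with 10% biotinylated, detergent-solubilized Sf9 membrane reagent and enriched on streptavidin microbeads. FACS then separated cells into low and high (top ~1%) gates by anti-HA (expression) and streptavidin (reagent binding) fluorescence. Genes were colony-PCR amplified, MiSeq 2 × 250 sequenced and CDR-length filtered. A clone's polyreactivity label is that of its gate of origin.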
row,Sequence,polyreactivity (PSR sort gate)
1,QVQLVESGGGLVQAGGSLRLSCAASGFTSWDIDMGCYRQAPGIEREMVAAITGGGTTNYADSVKGRFTISRDNAKNTVYLQMNSLKPEDTAVYYCAAKPWWYSGYDYWGQGTQVTVSS,low polyreactivity
2,QVQLVESGGGLVQAGGSLRLSCAASGFTSYLYTMGWYRQAPGKERELVAAISNSGGNTYYADSVKGRFTISRDNAKNTVYLQMNSLKPEDTAVYYCAARLFAAKYRYGYWGQGTQVTVSS,high polyreactivity
3,QVQLVESGGGLVQAGGSLRLSCAASGFTSYTNAMGWYRQAPGKERELVAAIDVSGSDTYYADSVKGRFTISRDNAKNTVYLQMNSLKPEDTAVYYCAAEYYSYYYQGYDYWGQGTQVTVSS,high polyreactivity
4,QVQLVESGGGLVQAGGSLRLSCAASGFTVAIYAMGWYRHAPGKERELVAAINRCGGSTYYADSVKGRFTISRDNAKNSVYLQMNSLKTEDTAVYYCNKRYRVWFDYWGQGTQVTVSS,high polyreactivity
5,QVQLVESGGGLVQAGGSLRLSCAASGFTVDLYAMGWYRQAPGKERELVAAITSSGGSTYYADSVKGRFTISRDNAKNTVYLQMNSLTPEDTAVYYCAVAYSSHTSYYSWGQGTQVTVSS,low polyreactivity
6,QVQLVESGGGLVQAGGSLRLSCAASGFTVHDYAMGWYRQAPGKERELVAAISFSGGRTYYADSVKGRFSISRDNAKNTVYLQMNSLKPEDTAVYYCNAKGQRIKRWRGYWGQGTQVTVSS,high polyreactivity
7,QVQLVESGGGLVQAGGSLRLSCAASGFTVIDYAMGWYSQAPGKERELVAAITTGTITYYADSVTGRFTISRDNAKNTVYLQMNSLKPEDTAVYYCNADWLTLATTMNYWGQGTQVTVSS,low polyreactivity
8,QVQLVESGGGLVQAGGSLRLSCAASGFTVSAYALGWYRQAPGKERELVAAISTRGGSTRYADSVKGRFTISRDNAKNTVYLQMNSLKPEDTAVYYCAADTRSFYRYDYWGQGTQVTVSS,high polyreactivity
9,QVQLVESGGGLVQAGGSLRLSCAASGFTYDSYAMRWYRQAPGKERELVAAITRRGGSTYYADSVKGRFTISRDNAKNTVYLQMNSLKPEDTAVYYCATLRLRSLGQRNYWGQGTQVTVSS,high polyreactivity
10,QVQLVESGGGLVQAGGSLRLSCAASGFTYGRYAMGWYRQAPRKERELVAAISFSGGRTYYADSVKGRFTISRDNAKNTVYLQMKSLKPEDTAVYYCAARRRQEHVGRSSYARYDYWGQGTQVTVSA,high polyreactivity
11,QVQLVESGGGLVQAGGSLRLSCAASGFTYHVYAMGWYRQAPGKERELVAAISTGDDTTFYADSVKGRFTISRDNAKNTVYLQMNSLKPEDSAVYYCAAEYQVEYYYTTNFLTTYDYWGQGTQVTVSS,low polyreactivity
12,QVQLVESGGGLVQAGGSLRLSCAASGFTYKYYAMGWYRQAPGKERELVAAISGSGGRTYYADSVKGRFTISRDNAKNTVYLQMNSLKPEDTAVYYCAAVYLVTRGARYDYWGQGTQVTVSS,high polyreactivity
13,QVQLVESGGGLVQAGGSLRLSCAASGFTYPANAMGWYRQAPGKERELVASISGSGGRTYYADSVKGRFTISRDNAQNTVYLQMNSLKPEDTAVYYCNRYSYWYRGEYGYWGQGTQVTVSS,high polyreactivity
14,QVQLVESGGGLVQAGGSLRLSCAASGFTYRVNAMGWYRQATGKERELVAAITVSDGRTYYADSVKGRFTISRDNAKNTVYLQMNSLKPEDTAVYYCAADYKGAFTTDWSSEYEYWGQGTQVTVSS,low polyreactivity
15,QVQLVESGGGLVQAGGSLRLSCAASGFTYSKNAMGWDRQAPAKERELVAVITRRGGSTYYADSVKGRFTISRDNAKNTVYLQMNSLKPEDTAVYYCAAASFTRRDLDYWGQGTQVTVSS,high polyreactivity
16,QVQLVESGGGLVQAGGSLRLSCAASGFTYSLYDMGWYRQAPGKERELVAAISSDGSTNYADSVKGRFTISRDNAKNTVYLQMNSLKPEDTAVYYCAADETFLSYWLNYWGQGTQVTVSS,low polyreactivity
17,QVQLVESGGGLVQAGGSLRLSCAASGFYNTMGWYRQAPRKERELVAAISTGGMTNYADSVKGRFTISRDNAKNTVYLQMNSLKPVDTAVYYCAADGYSTVYSTYDYWGQGTQVTVSS,low polyreactivity
18,QVQLVESGGGLVQAGGSLRLSCAASGGIFADYAMGWYRQAPGKERELVAAISSGGNTNYADSVKGRFTISRDNAKNTVYLQMNSLKPEDTAVYYCNRDTSYYRYVYYEGNDYWGQGTQVTVSS,low polyreactivity
19,QVQLVESGGGLVQAGGSLRLSCAASGGIFAYYAMGWYRQAPGKERELVAAITSRGGRTYYADSVKGRFTISRDNAKNTVYFQMNSLKPEDTEVYYCNAERFWPWDYDYWGQGTQVTVSS,high polyreactivity
20,QVQLVESGGGLVQAGGSLRLSCAASGGIFDIYAMGWYRQAPGKERELVAANRGSGGRTYYADSVKGRFTISRDNAKNTVYLQMNSLKPEDTAVYYCAARPSIVTGLRYGYWGQGTQVTVSS,high polyreactivity
21,QVQLVESGGGLVQAGGSLRLSCAASGGIFDPYAMGWYRQAPGKERELVAAITNSGGSTYYADSVKGRFTISRDNAKNTVYLQMNSLKPEDTAVYYCAAEGLYVGYDYWGQGTQVTVSS,low polyreactivity

row,Sequence,polyreactivity (PSR sort gate)
1,QVQLVESGGGLVQAGGSLRLSCAASGGIFDTNAMGWYRQAPGKEREFVAAITGSGGSTYYADSVKGRFTISRDYAKNSVYLQMNSLKPEDTAVYYCAAPLSYYWVFIVRYGYDYWGQGTQVTVSS,low polyreactivity
2,QVQLVESGGGLVQAGGSLRLSCAASGGIFDTYAMGWYRQAPGKERELVAAISRRGGNTYYADSVKGRFTISRDNAKNTVYLQMNSLKPEDTAVYYCAAYYHGRMDYWGQGTQVTVSS,high polyreactivity
3,QVQLVESGGGLVQAGGSLRLSCAASGGIFGANSMGWYRQAPGKERELVATITRGGSTNYADSVKGRFTISRDNAKNTVYLQMNSLKTEDTAVYYCAARFYSRAFWPAYYYWGQGTQVTVSS,high polyreactivity
4,QVQLVESGGGLVQAGGSLRLSCAASGGIFGFNAMGWYRPAPGKERELVADISDGVRTNYADSVKGRFTISRDNAKNTVYLQMNSLKPEDTAVYYCATDGLFLAWAPLGALAFDYWGQGTQVTVSS,low polyreactivity
5,QVQLVESGGGLVQAGGSLRLSCAASGGIFGGNAMGWYRQAPGQERELVAAISRSSGSTYYADSVKGRFTISRDNAKNTVYLQMNSLKPEDSAVYYCNVEGYGRRFDYWGQGTQVTVSS,high polyreactivity
6,QVQLVESGGGLVQAGGSLRLSCAASGGIFGLYAMGWYRQAPGKERELVAAISWSGGSTYYADSVKGRFTISRDNAKNTVYLQMNSLKPEDTAVYYCAAEWDTNFWYDYWGQGTQVTVSS,low polyreactivity
7,QVQLVESGGGLVQAGGSLRLSCAASGGIFGLYTMGWYRQAPGKERELVAGISKRGTRTRYADSVKGRFTISRDHAKNTVYLQMNSLKPEDTAVYYCNADYYVSKLDYWGQGTQVTVSS,high polyreactivity
8,QVQLVESGGGLVQAGGSLRLSCAASGGIFGRYDMGWYRQAPGKERELVAAISKRGGSTYYADSVKGRFTISRDNAKNTVYLQMNSLKPEDTAVYYCNAAQSVELGYDYWGQGTQGTVSS,high polyreactivity
9,QVQLVESGGGLVQAGGSLRLSCAASGGIFGSYAMGWYRQAPGKERELVADITQSGGRTRYADSVKGRFTISRDNAKNTVYLQMNSLKPEDSAVYYCNAQDVDSGDDYDYWGQGTQVTVSS,low polyreactivity
10,QVQLVESGGGLVQAGGSLRLSCAASGGIFGYYAMGWYRQAPGKEREFVAAISVSGGSTYYADSVKGRFTISRDNAKNTVYLQMNSLKPEDTAVYYCAADVIVLRPGEYDYWGQGTQVTVSS,low polyreactivity
11,QVQLVESGGGLVQAGGSLRLSCAASGGIFGYYAMGWYRQAPGTEREFVAAITARGGRTYYADSVKGRFTISRDNAKNTVYLQMNSLKPEDTAVYDCAAYSPVWGRYYHRVERDYWGQGTQVTVSS,high polyreactivity
12,QVQLVESGGGLVQAGGSLRLSCAASGGIFGYYVMGRYRQAPGKERELVAVITRGGSTNYADSVKGRFTISRDNAKNTVYLQMNSLKPEDTAVYYCAKDVPYRRVRSEYWGQGTQVTVSS,low polyreactivity
13,QVQLVESGGGLVQAGGSLRLSCAASGGIFGYYVMGWYRQAPGKERELVAVITRGGSTNYADSLKGRFTISRDNAKNTVYLQMNSLKPEDTAVYYCNAGPAGYYDYDYWGQGTQVTVSS,low polyreactivity
14,QVQLVESGGGLVQAGGSLRLSCAASGGIFHNYAMGWYRQAPGKERELVAAITTSDGSTYYEDSVKGRFTISRDIAKNTVYLEMNSLKPEDTAVYYCNAEYLYTVYFDDGGFIMDYWGQGTQVTVSS,low polyreactivity
15,QVQLVESGGGLVQAGGSLRLSCAASGGIFIGYAMGWYRPAPGKERELVARIRSSGGTTYYADSVKGRFTISRDNAKNTVYLQMNSLKPEDTAVYYCAKRTSSSWAYGPYYYWGQGTQVTVSS,high polyreactivity
16,QVQLVESGGGLVQAGGSLRLSCAASGGIFLPYAMGWYRQAPGKERELVAGITTSGGSTYYADSVKGRFTISRDNAKNTVYLQMNSLKPEDTAVYYCAKKSSLFKHVVRYDYWGQGTQVTVSS,low polyreactivity
17,QVQLVESGGGLVQAGGSLRLSCAASGGIFNINAMGWYRQAPGKERELVAGINWSDTGTYYADSVKGRFTISRDNAKNTVYLQMNSLKPEDTAVYDCAVSGYPVYITYVSYDYDYWGQGTQVTVSS,low polyreactivity
18,QVQLVESGGGLVQAGGSLRLSCAASGGIFNVNAMGWYRQAPWKERELVAAIDWSSSSTDYADSVKGRFTISRDNAKNTVYLQMNSLKPEDTAVYYCAKLAGYSPTFEYWGQGTQVTVSS,low polyreactivity
19,QVQLVESGGGLVQAGGSLRLSCAASGGIFPAYAMGWYRQAPGKERELVASISANGGRTYYADSVKGRFTISRDNAKNTVYLQMNSLKPEDTAVYYCNASSRSGSWRFYYWGQGTQVTVSS,high polyreactivity
20,QVQLVESGGGLVQAGGSLRLSCAASGGIFPGYAMGWYRQAPGKERELVAAISGSGSSTYYADSVKGRFTISRDNAKNTVYLQMNSLKPEDTAVYYCAVYYTRGYDYWGQGTQVTVSS,high polyreactivity

# From the nanobody polyreactivity screen of Harvey et al. (2022)
